Source: US20240368258A1 (RUTGERS THE STATE UNIVERSITY OF NEW JERSEY, published 2024)

B1: antiEphA5_F31 scFv (scFv)
scFv: SYELTQPPSVSVAPGKTARITCEGNNIGSKGVHWYQQKPGQAPALVVYDGSDRPSGIPERFSGSNSGNTATLTISRVEAGDEADYYCQVWDNSSDHPNYVFGTRTKLTVLSGGSTKTSYNVYYTKLSSSGTQVQLVETGGGLVQPGGSLRLSCAASGFTFSSYAMSWVRQAPGKGLEWVSAISGSGGSTYYADSVKGRFTISRDNSKNTLYLQMNSLRAEDTAVYYCARVAAGDYWGQGTLVTVSS
B2: antiGRP78_B4 scFv (scFv)
scFv: SYVLTQPPSVSVAPGKTATITCGGDDIGSKSVHWYQQKPGQAPVLVVYDDGDRPSGIPERFSGSNSGNTATLAISRVEAGDEADYYCQVWDSSSDQYVFGSGTKLTVLSGGSTITSYNVYYTKLSSSGTQVRLQESGPGLVKPSQTLSLTCTVSGGSISSGGYYWSWIRQHPGKGLEWIGYIYYSGSTYYNPSLESRVTISVDTSKNQFSLKLSSVTAADTAVYYCARYSSIDAFEIWGQGTMVTVSS
B3: antiGRP78_F6 scFv (scFv)
scFv: SYELTQPHSVSVAPGQTARITCGGDNIGSKSVHWYQQRPGQAPVLVVYDDSDRPSGIPERFSGSNSENTATLTISGVEAGDEADYYCQVWDSTSHHVVFGGGTKLTVLSGGSTITSYNVYYTKLSSSGTQVQLQQSGPGLVKPPQTLSLTCAISGDSVSSNSAAWNWIRQSPSRGLEWLGRTYYRSKWYNDYAVSVKSRITINPDTSKNQFSLQLNSVTPEDTAVYYCARDPYYYDSSGYYYFDAFDIWGQGTMVTVSS
B4: antiEphA5_T22 scFv (scFv)
scFv: QPVLTQSSSLSASPGASVSLTCTLRSGINVGPYRMYWYQQKPGSPPQYLLSYKSDSDTQQASGVPSRFSGSKDASANAGILLISGLQSEDEADYYCMIWHNNAVVFGGGTKLTVLSGGSTITSYNVYYTKLSSSGTQVQLVQSGTEVKKPGASVKVSCKVSGYSLSELSMHWVRQAPGKGLEWMGSFDPEDGETTYAQRFQGRVTMTEDTSTDTAYMELRSLTSDDTAVYYCAREIWSGYAYFDLWGRGTLVTVSS

Experiments:
[1] = biological target: T1, EphA5 expressed on H460 human lung carcinoma cells (human, UniProt P54756 25-1037); experiment: whole cell phage-ELISA, monovalent phage on H460 cells
T1 construct: whole, on cells; H226 cells served as the EphA5-negative cell line; also called native EphA5 target; endogenous EphA5 expressed on the cell surface
T1 sequence (P54756 25-1037): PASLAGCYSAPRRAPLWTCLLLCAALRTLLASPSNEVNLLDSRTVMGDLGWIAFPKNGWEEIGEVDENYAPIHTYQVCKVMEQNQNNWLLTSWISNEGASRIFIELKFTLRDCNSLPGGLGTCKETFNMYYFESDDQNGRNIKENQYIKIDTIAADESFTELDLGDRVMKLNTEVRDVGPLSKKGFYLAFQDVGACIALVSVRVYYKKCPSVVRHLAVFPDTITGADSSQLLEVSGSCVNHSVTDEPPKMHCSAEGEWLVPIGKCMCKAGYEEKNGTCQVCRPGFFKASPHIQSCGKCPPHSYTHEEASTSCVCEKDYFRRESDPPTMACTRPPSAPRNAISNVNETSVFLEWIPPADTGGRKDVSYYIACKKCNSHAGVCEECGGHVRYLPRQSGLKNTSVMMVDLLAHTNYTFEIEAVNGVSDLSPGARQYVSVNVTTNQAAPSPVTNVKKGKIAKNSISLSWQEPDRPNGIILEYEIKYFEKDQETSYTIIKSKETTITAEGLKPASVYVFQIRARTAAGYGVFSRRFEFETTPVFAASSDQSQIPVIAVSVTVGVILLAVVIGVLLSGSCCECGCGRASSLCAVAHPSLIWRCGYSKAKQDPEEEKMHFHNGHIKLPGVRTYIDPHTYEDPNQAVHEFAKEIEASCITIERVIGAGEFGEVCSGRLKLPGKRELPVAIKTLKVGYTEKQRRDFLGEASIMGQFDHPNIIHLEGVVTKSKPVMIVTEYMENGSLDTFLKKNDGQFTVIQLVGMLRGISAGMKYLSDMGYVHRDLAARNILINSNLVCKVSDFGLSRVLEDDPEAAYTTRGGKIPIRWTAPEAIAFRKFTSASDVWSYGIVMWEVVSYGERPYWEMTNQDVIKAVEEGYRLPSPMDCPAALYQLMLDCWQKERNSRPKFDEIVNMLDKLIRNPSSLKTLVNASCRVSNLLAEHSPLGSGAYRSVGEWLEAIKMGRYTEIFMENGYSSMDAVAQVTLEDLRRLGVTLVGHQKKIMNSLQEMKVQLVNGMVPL
Experimental: (§1) Single scFv clones were produced as monovalent phage and tested for binding on H460 human lung carcinoma (EphA5 positive) and H226 human lung squamous cell carcinoma (EphA5 negative) cell lines in vitro. Briefly, cells were seeded on 96-well plate, blocked and incubated with phage displaying the scFv of interest at different concentrations. After washing, cell surface bound phage were detected with the antiM13-HRP conjugated mAb (GE).

[2] = biological target: T2, GRP78 on the surface of MCF-7 human breast cancer cells (human, UniProt P11021 19-654); experiment: whole cell phage-ELISA, monovalent phage on MCF-7 cells
T2 construct: whole, on cells; also called surface GRP78; 78 kDa glucose-regulated protein
T2 sequence (P11021 19-654): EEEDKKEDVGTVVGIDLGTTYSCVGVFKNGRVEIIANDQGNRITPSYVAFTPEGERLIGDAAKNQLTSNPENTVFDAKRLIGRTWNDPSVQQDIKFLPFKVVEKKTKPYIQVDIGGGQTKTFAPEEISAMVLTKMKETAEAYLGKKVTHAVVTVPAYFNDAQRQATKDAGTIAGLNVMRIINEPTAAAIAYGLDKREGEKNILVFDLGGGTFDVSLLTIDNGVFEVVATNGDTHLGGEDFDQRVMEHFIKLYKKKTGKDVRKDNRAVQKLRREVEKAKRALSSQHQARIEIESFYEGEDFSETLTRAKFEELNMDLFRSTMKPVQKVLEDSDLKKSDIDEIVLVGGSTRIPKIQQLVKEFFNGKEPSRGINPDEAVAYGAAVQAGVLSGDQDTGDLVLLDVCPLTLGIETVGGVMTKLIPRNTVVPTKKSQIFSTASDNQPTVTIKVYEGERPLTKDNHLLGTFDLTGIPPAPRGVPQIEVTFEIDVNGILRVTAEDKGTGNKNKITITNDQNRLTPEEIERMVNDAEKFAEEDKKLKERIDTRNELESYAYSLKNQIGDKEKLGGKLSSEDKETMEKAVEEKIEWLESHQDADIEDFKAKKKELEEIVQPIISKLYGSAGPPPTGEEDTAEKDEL
Experimental: as §1, with “FIG. 8. Phage binding on cells. […] Single” for “Single”, “MCF-7” for “H460 human lung carcinoma (EphA5 positive) and H226 human lung squamous cell carcinoma (EphA5 negative) cell lines”
Single scFv clones were produced as monovalent phage and tested for binding on MCF-7 in vitro. Briefly, cells were seeded on 96-well plate, blocked and incubated with phage displaying the scFv of interest at different concentrations. After washing, cell surface bound phage were detected with the antiM13-HRP conjugated mAb (GE). […] Anti-GRP78 phage bind specifically to cells expressing surface GRP78.

Row | Binder | binding result [1] | binding result [2]
1 | B1 | binds | 
2 | B2 |  | binds
3 | B3 |  | binds
4 | B4 | binds | 
